From patent US9988424 (DUKE UNIVERSITY, dated 2018)

Assays:
[1] = target: MN gp120 (HIV-1)
[2] = target: AE.A244 gp120 delta 11 (HIV-1)
[3] = target: T1, G.con 140CF; test: ELISA OD405nm, bar chart, antibody concentration not given
T1 construct: also called G.con gp140CF; G.con.env03 gp140CF

[4] = target: T2, Con 6 120; test: as above
T2 construct: also called Con 6 gp120

[5] = target: T3, B.con env03 140CF; test: as above
T3 construct: also called B.con gp140CF

[6] = target: T4, AE.con env03 40CF; test: as above
T4 construct: also called AE.con gp140CF; AE.con.env03 gp140CF

[7] = target: T5, B.62357 140C; test: as above
T5 construct: also called B.62357 gp140C

[8] = target: B.040 gp140C; test: as above
[9] = target: T6, SIV CPZ US-1 gp140CF (SIVcpz); test: as above
T6 construct: also called US-1 SIVCPZ gp140CF
T6 chain: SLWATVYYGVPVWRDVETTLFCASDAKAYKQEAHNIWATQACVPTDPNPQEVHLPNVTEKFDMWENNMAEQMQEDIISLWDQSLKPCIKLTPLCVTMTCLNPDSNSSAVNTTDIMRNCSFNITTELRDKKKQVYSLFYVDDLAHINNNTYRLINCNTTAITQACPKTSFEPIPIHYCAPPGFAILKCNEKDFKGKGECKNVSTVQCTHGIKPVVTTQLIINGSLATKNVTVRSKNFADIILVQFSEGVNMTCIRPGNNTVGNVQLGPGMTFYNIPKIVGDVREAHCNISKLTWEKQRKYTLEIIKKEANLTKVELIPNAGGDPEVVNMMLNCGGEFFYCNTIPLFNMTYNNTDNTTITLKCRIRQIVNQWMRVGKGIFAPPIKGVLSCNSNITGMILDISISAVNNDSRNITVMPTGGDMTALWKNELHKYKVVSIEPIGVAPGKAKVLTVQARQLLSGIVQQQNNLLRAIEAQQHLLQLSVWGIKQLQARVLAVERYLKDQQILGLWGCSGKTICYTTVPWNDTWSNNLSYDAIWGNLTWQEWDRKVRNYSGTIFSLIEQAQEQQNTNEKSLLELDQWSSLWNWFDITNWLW

[10] = target: T7, A.9004SS V1V2 Tags; test: ELISA, OD405
T7 Env construct: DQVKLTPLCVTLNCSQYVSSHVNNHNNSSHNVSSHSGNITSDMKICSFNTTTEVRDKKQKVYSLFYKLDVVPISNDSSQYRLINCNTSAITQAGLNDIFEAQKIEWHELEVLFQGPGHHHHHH

[11] = target: B. 681-7 gp140C; test: ELISA, OD405
[12] = target: B.040 gp140C; test: ELISA, OD405
[13] = target: T8, B.63521_V1V2 Tags; test: ELISA, OD405
T8 Env construct: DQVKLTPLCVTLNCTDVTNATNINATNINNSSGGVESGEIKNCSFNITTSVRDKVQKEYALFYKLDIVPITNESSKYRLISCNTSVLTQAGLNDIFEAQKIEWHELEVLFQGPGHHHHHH

[14] = target: T9, B.Case A2 V1/V2 Tags; test: ELISA, OD405
T9 Env construct: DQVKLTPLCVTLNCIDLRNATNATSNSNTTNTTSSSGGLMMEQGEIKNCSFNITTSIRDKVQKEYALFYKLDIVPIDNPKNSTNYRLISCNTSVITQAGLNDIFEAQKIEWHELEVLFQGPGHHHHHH

[15] = target: T10, B.con gp140CF; test: ELISA, OD405
T10 construct: also called B.con.env03 gp140CF

[16] = target: T11, D.9009SA V1V2 Tags; test: ELISA, OD405
T11 Env construct: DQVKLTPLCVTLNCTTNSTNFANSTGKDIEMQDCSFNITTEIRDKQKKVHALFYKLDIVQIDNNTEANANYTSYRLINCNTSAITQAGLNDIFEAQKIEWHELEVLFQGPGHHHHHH

[17] = target: T12, G.con gp140CF; test: ELISA, OD405
T12 construct: also called G.con.env03 gp140CF

[18] = target: AE.con gp140CF; test: ELISA, OD405 at 10 ug/ml
[19] = target: B.Case A2 V1/V2 tags; test: ELISA, OD405 at 10 ug/ml
[20] = target: B.con gp140CF; test: ELISA, OD405 at 10 ug/ml
[21] = target: T13, C.1086 gp140; test: ELISA, OD405 at 10 ug/ml
T13 construct: also called C.1086gp140C

[22] = target: D.9009SA V1/V2 tags; test: ELISA, OD405 at 10 ug/ml
[23] = target: G.con gp140CF; test: ELISA, OD405 at 10 ug/ml
[24] = target: C.1086 V1V2 Tags (HIV-1); test: ELISA, OD405 at 10 ug/ml
[25] = target: T14, AE.97CNG2XF gp140CF (HIV-1); test: ELISA, OD405 at 10 ug/ml
T14 construct: also called E.97CNGX2F gp140CF

[26] = target: T15, B.HXB/BAL gp140CFI (HIV-1, UniProt P04578 33-680); test: ELISA, OD405 at 10 ug/ml
T15 construct: also called B.HxB/Ba gp140 CFI

B1: CH59 (antibody, V domains shown)
VH: EVQLVESGGGLVQPGRSLRLSCAASGFTFDDGAMHWVRQAPGKGLEWVSGISWNSNIIAYADSVKGRFTISRDNAKNSLYLEMNSLRVEDTALYYCAKDSPRGELPLNYWGQGTLVTVSS
VL: SYELTQPPSVSVSPGQTARITCSGDALPKNYAYWYQQKSGQAPVLVIYEDSKRPSGIPERFSGSSSGTMATLTISGAQVEDEADYYCYSTDSSGNHRVFGGGTKLTVL
notes: also called mAb CH59
B1 showed an IC50 [1] of 10 to 100 nM, a koff [2] of 0.00013 s⁻¹ and a kon [2] of 58300 M⁻¹ s⁻¹.

B2: CH58 reverted unmutated ancestor antibody (antibody, V domains shown)
VH: EVQLVQSGAEVKKPGESLKISCKGSGYSFTSYWIGWVRQMPGKGLEWMGIIYPGDSDTRYSPSFQGQVTISADKSISTAYLQWSSLKASDTAMYYCARLGGRYYYDSSGYYYFDYWGQGTLVTVSS
VL: NFMLTQPHSVSESPGKTVTISCTRSSGSIASNYVQWYQQRPGSSPTTVIYEDNQRPSGVPDRFSGSIDSSSNSASLTISGLKTEDEADYYCQSYDSSSWVFGGGTKLTVL
notes: also called CH58 RUA; CH58_RUA
B2: no binding (tested: not given) [3]; no binding (tested: not given) [4]; no binding (tested: not given) [5]. B2: no binding (tested: not given) [6]; no binding (tested: not given) [7]; no binding (tested: not given) [8]. B2: no binding (tested: not given) [9].

B3: PG9 reverted unmutated ancestor antibody (antibody, V domains shown)
VH: QVQLVESGGGVVQPGRSLRLSCAASGFTFSSYGMHWVRQAPGKGLEWVAVISYDGSNKYYADSVKGRFTISRDNSKNTLYLQMNSLRAEDTAVYYCAREAGGPDYRNGYNYYDFWSGYYNYYYMDVWGKGTTVTVSS
VL: QSALTQPASVSGSPGQSITISCTGTSSDVGSYNLVSWYQQHPGKAPKLMIYEVSKRPSGVSNRFSGSKSGNTASLTISGLQAEDEADYYCCSLTSTRRWVFGGGTKLTVL
notes: also called PG9 RUA; PG9_RUA
B3: no binding (tested: 10 ug/ml) [10]; no binding (tested: 10 ug/ml) [11]; no binding (tested: 10 ug/ml) [12]. B3: no binding (tested: 10 ug/ml) [13]; no binding (tested: 10 ug/ml) [14]; no binding (tested: 10 ug/ml) [15]. B3: no binding (tested: 10 ug/ml) [16]; no binding (tested: 10 ug/ml) [17].

B4: 697D reverted unmutated ancestor antibody (antibody, V domains shown)
VH: QVQLVQSGAEVKKPGSSVKVSCKASGGTFSSYTISWVRQAPGQGLEWMGRIIPILGIANYAQKFQGRVTITADKSTSTAYMELSSLRSEDTAVYYCATSGVGLHFGYFDYWGQGTLVTVSS
VL: QSVLTQPPSVSGAPGQRVTISCTGSSSNIGAGYDVHWYQQLPGTAPKLLIYGNSNRPSGVPDRFSGSKSGTSASLAITGLQAEDEADYYCQSYDSSLSGYVFGTGTKVTVL
notes: also called 697D RUA
B4: no binding (tested: 10 ug/ml) [18]; no binding (tested: 10 ug/ml) [19]; no binding (tested: 10 ug/ml) [20]. B4: no binding (tested: 10 ug/ml) [21]; no binding (tested: 10 ug/ml) [22]; no binding (tested: 10 ug/ml) [23]. B4: no binding (tested: 10 ug/ml) [24]; no binding (tested: 10 ug/ml) [25]; no binding (tested: 10 ug/ml) [26].
